T1: FcγRIIb extracellular domain with C-terminal His tag (human, UniProt P31994 43-217)
T1 construct: extracellular domain; also called FcgRIIb; 2b; not shown: His tag at the C terminus
T1 sequence (looked up): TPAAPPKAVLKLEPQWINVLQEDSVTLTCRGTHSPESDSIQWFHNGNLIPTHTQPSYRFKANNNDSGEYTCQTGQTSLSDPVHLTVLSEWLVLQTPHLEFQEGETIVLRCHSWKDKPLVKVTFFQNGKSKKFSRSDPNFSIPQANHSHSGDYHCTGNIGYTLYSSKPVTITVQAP

B1: GpH7-B3 variant K326_07I/GpL16-k0 (antibody, human IgG1, kappa)
heavy: not shown
light: DIVMTQSPLSLPVTPGEPASISCQASESLVHSNRNTYLHWYLQKPGQSPQLLIYKVSNRFSGVPDRFSGSGSGTDFTLKISRVEAEDVGVYYCSQNTHVPPTFGQGTKVEIERTVAAPSVFIFPPSDEQLKSGTASVVCLLNNFYPREAKVQWKVDNALQSGNSQESVTEQDSKDSTYSLSSTLTLSKADYEKHKVYACEVTHQGLSSPVTKSFNRGEC
notes: also called Ho Ab K326_07I
B2: GpH7-B3 variant K334_14T/GpL16-k0 (antibody, human IgG1, kappa)
heavy: not shown
light: B1 light
notes: also called Ho Ab K334_14T
B3: GpH7-B3 variant I332_15Y/GpL16-k0 (antibody, human IgG1, kappa)
heavy: not shown
light: B1 light
notes: also called Ho Ab I332_15Y
B4: GpH7-B3 variant G236_09D/GpL16-k0 (antibody, human IgG1, kappa)
heavy: not shown
light: B1 light
notes: also called Ho Ab G236_09D
B5: GpH7-B3 variant K326_03V/GpL16-k0 (antibody, human IgG1, kappa)
heavy: not shown
light: B1 light
notes: also called Ho Ab K326_03V
B6: GpH7-B3 variant I332_14T/GpL16-k0 (antibody, human IgG1, kappa)
heavy: not shown
light: B1 light
notes: also called Ho Ab I332_14T
B7: GpH7-B3 variant L235_20W/GpL16-k0 (antibody, human IgG1, kappa)
heavy: not shown
light: B1 light
notes: also called Ho Ab L235_20W
B8: GpH7-B3 variant K326_19Q/GpL16-k0 (antibody, human IgG1, kappa)
heavy: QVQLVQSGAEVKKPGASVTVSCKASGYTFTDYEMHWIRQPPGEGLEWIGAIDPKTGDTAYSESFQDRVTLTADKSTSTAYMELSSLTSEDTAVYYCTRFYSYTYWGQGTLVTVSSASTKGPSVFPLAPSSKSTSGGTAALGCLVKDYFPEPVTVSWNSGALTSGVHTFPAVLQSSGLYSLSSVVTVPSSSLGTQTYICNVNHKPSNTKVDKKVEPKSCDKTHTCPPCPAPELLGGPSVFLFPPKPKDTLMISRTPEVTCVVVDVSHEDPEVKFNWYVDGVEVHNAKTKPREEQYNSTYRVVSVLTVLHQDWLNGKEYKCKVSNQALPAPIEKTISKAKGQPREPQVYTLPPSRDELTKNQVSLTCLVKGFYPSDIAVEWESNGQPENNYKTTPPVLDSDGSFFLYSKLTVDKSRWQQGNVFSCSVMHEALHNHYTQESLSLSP
light: B1 light
notes: also called Ho Ab K326_19Q
B9: GpH7-B3 variant K334_05P/GpL16-k0 (antibody, human IgG1, kappa)
heavy: not shown
light: B1 light
notes: also called Ho Ab K334_05P
B10: GpH7-B3 variant H268_18N/GpL16-k0 (antibody, human IgG1, kappa)
heavy: not shown
light: B1 light
notes: also called Ho Ab H268_18N
B11: GpH7-B3 variant K334_13S/GpL16-k0 (antibody, human IgG1, kappa)
heavy: not shown
light: B1 light
notes: also called Ho Ab K334_13S
B12: GpH7-B3 variant K326_04F/GpL16-k0 (antibody, human IgG1, kappa)
heavy: not shown
light: B1 light
notes: also called Ho Ab K326_04F
B13: GpH7-B3 variant H268_10E/GpL16-k0 (antibody, human IgG1, kappa)
heavy: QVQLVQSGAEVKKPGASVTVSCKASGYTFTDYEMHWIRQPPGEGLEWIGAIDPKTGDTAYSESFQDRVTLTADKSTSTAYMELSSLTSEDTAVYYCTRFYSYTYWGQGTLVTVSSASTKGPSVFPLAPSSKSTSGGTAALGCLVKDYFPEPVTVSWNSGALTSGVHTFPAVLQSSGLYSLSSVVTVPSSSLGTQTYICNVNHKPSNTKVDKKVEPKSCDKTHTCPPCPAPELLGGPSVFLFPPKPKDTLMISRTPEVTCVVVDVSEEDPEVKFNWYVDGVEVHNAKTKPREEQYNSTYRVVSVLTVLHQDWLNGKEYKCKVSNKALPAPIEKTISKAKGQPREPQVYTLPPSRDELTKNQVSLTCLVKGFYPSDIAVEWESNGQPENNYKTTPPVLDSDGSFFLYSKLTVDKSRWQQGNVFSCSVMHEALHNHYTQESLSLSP
light: B1 light
notes: also called Ho Ab H268_10E
B14: GpH7-B3 variant K326_20W/GpL16-k0 (antibody, human IgG1, kappa)
heavy: not shown
light: B1 light
notes: also called Ho Ab K326_20W
B15: GpH7-B3 variant I332_10E/GpL16-k0 (antibody, human IgG1, kappa)
heavy: not shown
light: B1 light
notes: also called Ho Ab I332_10E
B16: GpH7-B3 variant K334_07I/GpL16-k0 (antibody, human IgG1, kappa)
heavy: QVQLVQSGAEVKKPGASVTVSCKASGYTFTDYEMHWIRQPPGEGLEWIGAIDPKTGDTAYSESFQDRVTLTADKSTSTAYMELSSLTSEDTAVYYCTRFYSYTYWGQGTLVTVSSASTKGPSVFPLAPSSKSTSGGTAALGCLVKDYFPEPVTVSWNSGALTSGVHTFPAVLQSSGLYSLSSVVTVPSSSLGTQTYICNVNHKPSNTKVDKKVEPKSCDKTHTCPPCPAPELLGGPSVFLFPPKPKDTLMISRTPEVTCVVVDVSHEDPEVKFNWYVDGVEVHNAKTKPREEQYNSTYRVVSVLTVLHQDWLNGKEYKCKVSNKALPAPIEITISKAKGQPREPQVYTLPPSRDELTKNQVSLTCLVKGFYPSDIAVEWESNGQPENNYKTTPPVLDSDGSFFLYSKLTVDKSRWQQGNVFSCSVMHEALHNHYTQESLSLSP
light: B1 light
notes: also called Ho Ab K334_07I
B17: GpH7-B3 variant I336_08L/GpL16-k0 (antibody, human IgG1, kappa)
heavy: not shown
light: B1 light
notes: also called Ho Ab I336_08L
B18: GpH7-B3 variant K326_06M/GpL16-k0 (antibody, human IgG1, kappa)
heavy: not shown
light: B1 light
notes: also called Ho Ab K326_06M
B19: GpH7-B3 variant K326_16H/GpL16-k0 (antibody, human IgG1, kappa)
heavy: not shown
light: B1 light
notes: also called Ho Ab K326_16H
B20: GpH7-B3 variant A327_10E/GpL16-k0 (antibody, human IgG1, kappa)
heavy: not shown
light: B1 light
notes: also called Ho Ab A327_10E
B21: GpH7-B3 variant I332_09D/GpL16-k0 (antibody, human IgG1, kappa)
heavy: not shown
light: B1 light
notes: also called Ho Ab I332_09D
B22: GpH7-B3 variant I332_06M/GpL16-k0 (antibody, human IgG1, kappa)
heavy: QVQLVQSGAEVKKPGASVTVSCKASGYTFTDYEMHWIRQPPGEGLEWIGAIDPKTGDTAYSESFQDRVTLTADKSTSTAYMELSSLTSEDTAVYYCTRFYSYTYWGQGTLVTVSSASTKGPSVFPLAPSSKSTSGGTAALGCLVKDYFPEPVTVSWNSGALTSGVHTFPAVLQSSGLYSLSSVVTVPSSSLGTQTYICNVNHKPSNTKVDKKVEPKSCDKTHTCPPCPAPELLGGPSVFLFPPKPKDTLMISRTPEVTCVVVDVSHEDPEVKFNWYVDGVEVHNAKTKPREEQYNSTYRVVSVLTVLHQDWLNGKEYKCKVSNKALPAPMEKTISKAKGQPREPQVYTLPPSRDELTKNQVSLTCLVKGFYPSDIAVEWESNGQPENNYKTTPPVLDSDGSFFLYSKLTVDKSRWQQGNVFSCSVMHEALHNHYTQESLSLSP
light: B1 light
notes: also called Ho Ab I332_06M
B23: GpH7-B3 variant K334_08L/GpL16-k0 (antibody, human IgG1, kappa)
heavy: not shown
light: B1 light
notes: also called Ho Ab K334_08L
B24: GpH7-B3 variant G236_10E/GpL16-k0 (antibody, human IgG1, kappa)
heavy: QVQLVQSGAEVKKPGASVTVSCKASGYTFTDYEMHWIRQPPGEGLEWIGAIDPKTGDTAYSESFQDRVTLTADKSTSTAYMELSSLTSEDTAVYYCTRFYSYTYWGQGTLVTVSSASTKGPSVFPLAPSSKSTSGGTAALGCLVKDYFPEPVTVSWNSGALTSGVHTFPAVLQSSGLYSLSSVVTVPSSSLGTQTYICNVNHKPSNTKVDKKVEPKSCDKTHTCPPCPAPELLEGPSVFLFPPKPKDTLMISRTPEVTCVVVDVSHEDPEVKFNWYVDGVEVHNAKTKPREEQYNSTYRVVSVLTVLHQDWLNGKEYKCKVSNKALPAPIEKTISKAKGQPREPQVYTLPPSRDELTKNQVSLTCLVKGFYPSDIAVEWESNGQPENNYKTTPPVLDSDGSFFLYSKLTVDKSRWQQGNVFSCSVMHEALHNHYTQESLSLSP
light: B1 light
notes: also called Ho Ab G236_10E
B25: GpH7-B3 variant A330_01G/GpL16-k0 (antibody, human IgG1, kappa)
heavy: not shown
light: B1 light
notes: also called Ho Ab A330_01G
B26: GpH7-B3 variant K326_09D/GpL16-k0 (antibody, human IgG1, kappa)
heavy: not shown
light: B1 light
notes: also called Ho Ab K326_09D
B27: GpH7-B3 variant H268_09D/GpL16-k0 (antibody, human IgG1, kappa)
heavy: not shown
light: B1 light
notes: also called Ho Ab H268_09D
B28: GpH7-B3 variant K334_02A/GpL16-k0 (antibody, human IgG1, kappa)
heavy: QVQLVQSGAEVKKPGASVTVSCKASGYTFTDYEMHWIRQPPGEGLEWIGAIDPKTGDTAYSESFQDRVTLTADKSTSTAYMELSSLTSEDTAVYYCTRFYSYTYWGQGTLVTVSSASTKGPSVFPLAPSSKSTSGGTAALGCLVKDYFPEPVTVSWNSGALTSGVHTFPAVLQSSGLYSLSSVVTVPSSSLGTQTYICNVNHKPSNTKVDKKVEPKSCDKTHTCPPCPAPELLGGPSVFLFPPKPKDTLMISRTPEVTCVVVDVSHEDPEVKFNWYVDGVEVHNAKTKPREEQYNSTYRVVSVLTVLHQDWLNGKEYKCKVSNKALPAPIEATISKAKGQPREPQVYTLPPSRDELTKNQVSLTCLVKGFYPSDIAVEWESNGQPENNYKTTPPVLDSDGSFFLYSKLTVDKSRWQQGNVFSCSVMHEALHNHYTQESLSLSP
light: B1 light
notes: also called Ho Ab K334_02A
B29: GpH7-B3 variant K326_15Y/GpL16-k0 (antibody, human IgG1, kappa)
heavy: not shown
light: B1 light
notes: also called Ho Ab K326_15Y
B30: GpH7-B3 variant K326_08L/GpL16-k0 (antibody, human IgG1, kappa)
heavy: not shown
light: B1 light
notes: also called Ho Ab K326_08L
B31: GpH7-B3 variant K334_10E/GpL16-k0 (antibody, human IgG1, kappa)
heavy: not shown
light: B1 light
notes: also called Ho Ab K334_10E
B32: GpH7-B3 variant K334_04F/GpL16-k0 (antibody, human IgG1, kappa)
heavy: not shown
light: B1 light
notes: also called Ho Ab K334_04F
B33: GpH7-B3 variant I332_04F/GpL16-k0 (antibody, human IgG1, kappa)
heavy: not shown
light: B1 light
notes: also called Ho Ab I332_04F
B34: GpH7-B3 variant A327_09D/GpL16-k0 (antibody, human IgG1, kappa)
heavy: not shown
light: B1 light
notes: also called Ho Ab A327_09D
B35: GpH7-B3 variant K326_14T/GpL16-k0 (antibody, human IgG1, kappa)
heavy: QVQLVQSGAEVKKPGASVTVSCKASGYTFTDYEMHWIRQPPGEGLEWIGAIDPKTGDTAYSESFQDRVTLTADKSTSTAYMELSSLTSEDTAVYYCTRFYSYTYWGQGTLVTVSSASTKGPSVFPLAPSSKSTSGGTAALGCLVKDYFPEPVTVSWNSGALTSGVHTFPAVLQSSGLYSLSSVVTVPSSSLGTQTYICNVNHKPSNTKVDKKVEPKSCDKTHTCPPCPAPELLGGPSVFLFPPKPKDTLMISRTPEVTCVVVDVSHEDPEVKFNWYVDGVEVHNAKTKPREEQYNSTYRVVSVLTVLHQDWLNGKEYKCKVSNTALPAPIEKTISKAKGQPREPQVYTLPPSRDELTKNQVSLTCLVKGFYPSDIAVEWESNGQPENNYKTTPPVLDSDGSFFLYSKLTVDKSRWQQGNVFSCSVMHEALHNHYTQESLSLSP
light: B1 light
notes: also called Ho Ab K326_14T
B36: GpH7-B3 variant G237_04F/GpL16-k0 (antibody, human IgG1, kappa)
heavy: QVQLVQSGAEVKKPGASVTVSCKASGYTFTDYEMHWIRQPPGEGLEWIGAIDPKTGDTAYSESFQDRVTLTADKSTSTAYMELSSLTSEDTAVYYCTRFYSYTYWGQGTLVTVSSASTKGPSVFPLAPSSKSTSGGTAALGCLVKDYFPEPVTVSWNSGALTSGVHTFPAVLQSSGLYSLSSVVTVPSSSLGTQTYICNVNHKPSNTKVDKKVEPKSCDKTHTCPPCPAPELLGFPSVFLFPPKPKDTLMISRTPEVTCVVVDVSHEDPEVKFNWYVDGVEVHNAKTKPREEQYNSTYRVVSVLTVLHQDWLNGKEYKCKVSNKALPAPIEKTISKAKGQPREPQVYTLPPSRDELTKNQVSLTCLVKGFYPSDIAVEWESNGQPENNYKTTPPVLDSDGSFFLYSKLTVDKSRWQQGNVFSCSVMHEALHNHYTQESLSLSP
light: B1 light
notes: also called Ho Ab G237_04F
B37: GpH7-B3 variant P238_04F/GpL16-k0 (antibody, human IgG1, kappa)
heavy: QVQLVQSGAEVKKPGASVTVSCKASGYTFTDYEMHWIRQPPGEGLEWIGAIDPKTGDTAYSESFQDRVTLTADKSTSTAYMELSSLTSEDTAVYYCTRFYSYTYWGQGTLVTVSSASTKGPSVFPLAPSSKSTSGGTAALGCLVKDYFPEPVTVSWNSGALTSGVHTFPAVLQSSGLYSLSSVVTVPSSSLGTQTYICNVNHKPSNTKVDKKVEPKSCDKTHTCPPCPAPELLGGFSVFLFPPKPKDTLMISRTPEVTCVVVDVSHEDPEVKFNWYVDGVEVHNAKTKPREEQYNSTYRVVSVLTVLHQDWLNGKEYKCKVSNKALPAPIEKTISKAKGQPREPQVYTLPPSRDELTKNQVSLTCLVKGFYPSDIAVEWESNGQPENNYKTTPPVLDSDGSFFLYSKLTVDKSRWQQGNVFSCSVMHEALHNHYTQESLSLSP
light: B1 light
notes: also called Ho Ab P238_04F
B38: GpH7-B3 variant L328_13S/GpL16-k0 (antibody, human IgG1, kappa)
heavy: not shown
light: B1 light
notes: also called Ho Ab L328_13S
B39: GpH7-B3 variant G237_20W/GpL16-k0 (antibody, human IgG1, kappa)
heavy: not shown
light: B1 light
notes: also called Ho Ab G237_20W
B40: GpH7-B3 variant K326_10E/GpL16-k0 (antibody, human IgG1, kappa)
heavy: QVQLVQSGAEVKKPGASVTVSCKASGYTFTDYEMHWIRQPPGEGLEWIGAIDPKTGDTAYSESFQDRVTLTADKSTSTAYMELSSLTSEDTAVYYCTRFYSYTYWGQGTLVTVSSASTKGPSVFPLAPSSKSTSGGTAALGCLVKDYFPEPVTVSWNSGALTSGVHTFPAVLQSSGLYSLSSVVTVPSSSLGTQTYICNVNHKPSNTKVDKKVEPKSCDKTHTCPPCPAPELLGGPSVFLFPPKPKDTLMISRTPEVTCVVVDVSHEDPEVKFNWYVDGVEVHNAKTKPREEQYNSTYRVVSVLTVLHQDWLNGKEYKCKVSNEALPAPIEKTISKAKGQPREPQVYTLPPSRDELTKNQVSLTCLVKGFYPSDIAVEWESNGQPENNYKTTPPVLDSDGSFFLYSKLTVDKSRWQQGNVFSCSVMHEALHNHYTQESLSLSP
light: B1 light
notes: also called Ho Ab K326_10E
B41: GpH7-B3 variant H268_13S/GpL16-k0 (antibody, human IgG1, kappa)
heavy: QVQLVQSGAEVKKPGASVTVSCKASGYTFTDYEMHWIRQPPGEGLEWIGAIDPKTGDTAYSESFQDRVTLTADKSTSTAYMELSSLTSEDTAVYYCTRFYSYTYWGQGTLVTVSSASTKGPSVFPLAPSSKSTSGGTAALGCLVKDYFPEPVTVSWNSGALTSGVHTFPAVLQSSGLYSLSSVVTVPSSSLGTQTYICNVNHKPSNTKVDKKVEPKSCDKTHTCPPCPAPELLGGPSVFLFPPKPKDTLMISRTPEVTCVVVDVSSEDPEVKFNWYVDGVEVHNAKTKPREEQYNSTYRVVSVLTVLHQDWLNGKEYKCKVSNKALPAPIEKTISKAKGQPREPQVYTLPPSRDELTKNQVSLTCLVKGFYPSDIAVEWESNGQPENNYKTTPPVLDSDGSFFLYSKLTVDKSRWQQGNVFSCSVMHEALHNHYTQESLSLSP
light: B1 light
notes: also called Ho Ab H268_13S
B42: GpH7-B3 variant L328_02A/GpL16-k0 (antibody, human IgG1, kappa)
heavy: not shown
light: B1 light
notes: also called Ho Ab L328_02A
B43: GpH7-B3 variant H268_01G/GpL16-k0 (antibody, human IgG1, kappa)
heavy: not shown
light: B1 light
notes: also called Ho Ab H268_01G
B44: GpH7-B3 variant K334_03V/GpL16-k0 (antibody, human IgG1, kappa)
heavy: not shown
light: B1 light
notes: also called Ho Ab K334_03V

target: T1, FcγRIIb extracellular domain with …; assay: SPR, relative binding, HoCon Ab = 100
Protocol: Analysis of interaction between objective antibody and the FcγR was carried out using Biacore T100 (GE Healthcare). HBS-EP+ (GE Healthcare) was used as the running buffer, and the measurement temperature was set to 25° C. Chips produced by immobilizing the antigen peptide by the amine coupling method to a Series S Sencor Chip CM5 (GE Healthcare), or alternatively, chips produced by allowing preliminarily biotinylated antigen peptides to interact with and immobilize onto a Series S Sensor Chip SA (certified) (GE Healthcare) were used. Antibodies of interest were captured onto an antigen peptide-immobilized chip, and allowed to interact to each FcγR diluted with running buffer. To regenerate and repeatedly use the chip, the antibodies captured on the chip were washed off by reacting 10 mM glycine-HCl, pH 1.5.

Ho/Con_2b | Binder
170 % of control | B1
138 % of control | B2
109 % of control | B3
207 % of control | B4
184 % of control | B5
106 % of control | B6
116 % of control | B7
163 % of control | B8
112 % of control | B9
179 % of control | B10
117 % of control | B11
160 % of control | B12
275 % of control | B13
132 % of control | B14
181 % of control | B15
137 % of control | B16
103 % of control | B17
193 % of control | B18
131 % of control | B19
148 % of control | B20
182 % of control | B21
106 % of control | B22

Ho/Con_2b | Binder
114 % of control | B23
114 % of control | B24
102 % of control | B25
240 % of control | B26
298 % of control | B27
110 % of control | B28
162 % of control | B29
168 % of control | B30
129 % of control | B31
115 % of control | B32
117 % of control | B33
175 % of control | B34
177 % of control | B35
140 % of control | B36
209 % of control | B37
147 % of control | B38
166 % of control | B39
237 % of control | B40
186 % of control | B41
117 % of control | B42
158 % of control | B43
145 % of control | B44
